Biological target: the molecule itself
Test: SEC

B1: PikAIV TE wild type (thioesterase domain of the pikromycin polyketide synthase PikAIV) (domain or fragment, Streptomyces venezuelae ATCC 15439, UniProt Q9ZGI2 1057-1346, looked up)
chain: AGMFRALFRQAVEDDRYGEFLDVLAEASAFRPQFASPEACSERLDPVLLAGGPTDRAEGRAVLVGCTGTAANGGPHEFLRLSTSFQEERDFLAVPLPGYGTGTGTGTALLPADLDTALDAQARAILRAAGDAPVVLLGHSGGALLAHELAFRLERAHGAPPAGIVLVDPYPPGHQEPIEVWSRQLGEGLFAGELEPMSDARLLAMGRYARFLAGPRPGRSSAPVLLVRASEPLGDWQEERGDWRAHWDLPHTVADVPGDHFTMMRDHAPAVAEAVLSWLDAIEGIEGAGK
  stoichiometry N: 2

— PMC11804868 (ACS catalysis, 2024)
